# According to IntAct's records for PubMed 18628306:
# B1: Mitochondrial chaperone BCS1 (Homo sapiens), Q9Y276 (parent)
# chain: MPLSDFILALKDNPYFGAGFGLVGVGTALALARKGVQLGLVAFRRHYMITLEVPARDRSYAWLLSWLTRHSTRTQHLSVETSYLQHESGRISTKFEFVPSPGNHFIWYRGKWIRVERSREMQMIDLQTGTPWESVTFTALGTDRKVFFNILEEARELALQQEEGKTVMYTAVGSEWRPFGYPRRRRPLNSVVLQQGLADRIVRDVQEFIDNPKWYTDRGIPYRRGYLLYGPPGCGKSSFITALAGELEHSICLLSLTDSSLSDDRLNHLLSVAPQQSLVLLEDVDAAFLSRDLAVENPVKYQGLGRLTFSGLLNALDGVASTEARIVFMTTNHVDRLDPALIRPGRVDLKEYVGYCSHWQLTQMFQRFYPGQAPSLAENFAEHVLRATNQISPAQVQGYFMLYKNDPVGAIHNAESLRR
# Variants of: B1
# Conditions: with letm1_human LETM1, O95202
# Sequence of letm1_human LETM1, O95202 (O95202 whole entry): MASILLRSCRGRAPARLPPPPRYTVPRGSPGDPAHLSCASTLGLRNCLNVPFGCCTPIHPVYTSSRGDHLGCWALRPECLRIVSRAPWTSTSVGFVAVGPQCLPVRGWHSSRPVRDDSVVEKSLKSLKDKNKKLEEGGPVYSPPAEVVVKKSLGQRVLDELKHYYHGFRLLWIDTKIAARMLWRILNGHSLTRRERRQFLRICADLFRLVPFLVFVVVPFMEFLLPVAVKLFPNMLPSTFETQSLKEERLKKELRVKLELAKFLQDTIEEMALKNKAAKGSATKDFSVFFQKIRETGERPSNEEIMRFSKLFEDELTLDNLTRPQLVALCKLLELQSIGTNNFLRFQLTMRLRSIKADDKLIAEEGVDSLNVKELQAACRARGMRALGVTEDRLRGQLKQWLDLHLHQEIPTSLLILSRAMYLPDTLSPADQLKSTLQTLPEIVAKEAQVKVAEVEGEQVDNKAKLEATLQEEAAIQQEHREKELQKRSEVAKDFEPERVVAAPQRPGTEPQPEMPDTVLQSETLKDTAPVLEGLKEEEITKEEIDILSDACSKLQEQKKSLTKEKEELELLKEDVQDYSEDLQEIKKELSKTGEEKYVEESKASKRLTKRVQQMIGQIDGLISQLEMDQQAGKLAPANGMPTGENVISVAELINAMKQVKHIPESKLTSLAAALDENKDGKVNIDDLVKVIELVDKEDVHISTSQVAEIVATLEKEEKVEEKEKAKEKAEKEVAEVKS
row,effect of a mutation on the interaction,Variant
1,disrupting interaction,R155P
